Source: patent US20230045791A1 (published 2023)
Like-named read-outs stand apart in the source and are kept apart here.

T1: His-tagged recombinant human TNFR2 (human, UniProt P20333 23-257)
T1 chain: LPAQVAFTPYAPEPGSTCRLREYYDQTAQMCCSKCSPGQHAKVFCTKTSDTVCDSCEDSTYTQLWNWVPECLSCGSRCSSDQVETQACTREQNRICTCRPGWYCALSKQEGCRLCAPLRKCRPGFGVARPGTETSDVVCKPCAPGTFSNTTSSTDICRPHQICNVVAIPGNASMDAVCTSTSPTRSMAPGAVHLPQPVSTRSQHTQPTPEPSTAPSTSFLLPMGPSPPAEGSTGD

T2: rhesus monkey TNFR2 expressed on CHO cells (CHO.mkHFB3) (rhesus monkey, UniProt F7GUU0 22-457)
T2 chain: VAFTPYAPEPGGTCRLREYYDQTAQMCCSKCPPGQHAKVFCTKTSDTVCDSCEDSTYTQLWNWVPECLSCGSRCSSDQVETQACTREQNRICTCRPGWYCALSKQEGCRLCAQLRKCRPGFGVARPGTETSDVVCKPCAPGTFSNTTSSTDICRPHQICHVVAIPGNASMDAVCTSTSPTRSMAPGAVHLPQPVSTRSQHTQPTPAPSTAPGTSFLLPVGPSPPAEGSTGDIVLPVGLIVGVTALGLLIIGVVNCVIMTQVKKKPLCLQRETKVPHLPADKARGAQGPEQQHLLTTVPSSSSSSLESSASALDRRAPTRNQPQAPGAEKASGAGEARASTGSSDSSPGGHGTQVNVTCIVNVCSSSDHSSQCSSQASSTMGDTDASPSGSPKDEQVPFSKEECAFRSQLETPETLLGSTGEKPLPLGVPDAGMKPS

T3: human TNFR2 expressed on cells (CHO.hHFB3 / CHO.hTNFR2 cells; primary human T cells) (human, UniProt P20333 23-461)
T3 chain: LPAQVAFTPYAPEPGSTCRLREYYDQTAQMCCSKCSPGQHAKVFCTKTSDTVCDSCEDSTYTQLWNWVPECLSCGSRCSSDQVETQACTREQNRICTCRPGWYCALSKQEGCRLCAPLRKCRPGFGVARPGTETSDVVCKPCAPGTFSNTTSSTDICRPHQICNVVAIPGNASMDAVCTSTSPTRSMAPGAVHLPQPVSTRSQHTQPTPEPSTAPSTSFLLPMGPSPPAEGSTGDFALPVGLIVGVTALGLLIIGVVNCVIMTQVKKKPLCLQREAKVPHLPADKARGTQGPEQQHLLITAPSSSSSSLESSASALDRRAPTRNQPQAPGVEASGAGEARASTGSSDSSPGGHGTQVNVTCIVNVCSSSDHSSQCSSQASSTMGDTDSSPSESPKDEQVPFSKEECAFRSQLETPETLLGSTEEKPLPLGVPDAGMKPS


Key:
[1] = target: T1, His-tagged recombinant human TNFR2; assay: ELISA
[2] = target: T1, His-tagged recombinant human TNFR2; assay: Octet BLI
[3] = target: T2, rhesus monkey TNFR2 expressed on CHO …; assay: FACS cell binding
[4] = target: T3, human TNFR2 expressed on cells …; assay: FACS cell binding
[5] = target: T2, rhesus monkey TNFR2 expressed on CHO …; assay: FACS cell binding
[6] = target: T1, His-tagged recombinant human TNFR2; assay: BLI (AHC biosensor)
[7] = target: T3, human TNFR2 expressed on cells …; assay: FACS cell binding; IgG1AA format
[8] = target: T3, human TNFR2 expressed on cells …; assay: FACS cell binding
[9] = target: T2, rhesus monkey TNFR2 expressed on CHO …; assay: FACS cell binding
[10] = target: T3, human TNFR2 expressed on cells …; assay: FACS cell binding; IgG1AA format

Binder | EC50 [1] [nM] | Kd [2] [nM] | EC50 [3] [nM] | EC50 [4] [nM] | EC50 [5] [nM] | Kd [6] [nM] | EC50 [7] [nM] | EC50 [8] [nM] | EC50 [9] [nM] | EC50 [10] [nM]
HFB3-18-hG1 (mouse monoclonal antibody) (antibody, V domains shown) VH: EVKLEESGGGLVQPGGSMKLSCAASGFTFSDAWMDWVRQSPEKGLEWVAEVRNKANNHATYYAESVKGRFTISRDDSKSSVYLQMNSLRAEDTGIYYCTRSVGGYGTTYWYFDVWGTGTTVTVSS VL: DIVMTQSPSSLSVSAGEKVTMSCKSSQNLLNSGNQKNYLAWYQQKPGQPPKLLIFGASTRESGVPDRFTGSGSGTDFTLTISSVQAEDLAVYYCQSEHSYPYTFGGGTKLEIKR | 49.8 |  |  | 4.17 | 4.85 | 4.2 |  |  |  | 
HFB3-14-hG1 (mouse monoclonal antibody) (antibody, V domains shown) VH: EVQLQQSGPELVKPGASVRISCKASGYTFTDYYMNWVKQSHGKSLEWIGDINPNDGGTTYSQKFKGKATLTVDKSSSTAYMELRSLTSEDSAVYFCAREGNYYAYDVRVWYFDVWGTGTTVTVSS VL: DIQMTQSPASLSVSVGETVTITCRSSENIYSNLAWYQQKQGKSPQLLVYAATNLADGVPSRFSGSGSGTQYSLKINSLQSEDFGSYYCQHFWGTPWTFGGGTKLEIKR |  |  |  |  | 2.13 |  |  |  | 2.15 | 
HFB3-1hz6-hG1 (humanized monoclonal antibody) (antibody, V domains shown) VH: QVQLVQSGAELKKPGASVKVSCKASSYSFTDYNMNWVRQAPGQSLEWMGIIFPKYGTTSYAQKLQGRVTLTTDTSTSTAYMELRSLRSDDTAVYYCATDGGTWYFDVWGTGTTVTVSS VL: DIQLTQSPSFLSASVGDRVTITCRASSSVTYMYWYQQKPGKAPKPWIYLTSNLASGVPSRFSGSGSGTEYTLTISSLQPEDAATYYCQQWSSNPPTFGSGTKLEIKR |  | 15.2 | 19.1 |  |  |  | 4.07 |  |  | 

Second part, the binder after the results:

EC50 [1] [nM] | Kd [2] [nM] | EC50 [3] [nM] | EC50 [4] [nM] | EC50 [5] [nM] | Kd [6] [nM] | EC50 [7] [nM] | EC50 [8] [nM] | EC50 [9] [nM] | EC50 [10] [nM] | Binder
0.06 | 6.3 | 5.37 | 0.48 | 0.6 | 1.4 | 0.905 |  |  |  | HFB3-1-hG1 (mouse monoclonal antibody) (antibody, V domains shown) VH: EFQLQQSGPELVKPGASVKISCKASSYSFTDYNMNWVKQSNGKSLEWIGIIFPKYGTTSYNQKFKGKATLTVDQSSSTAYMQLNSLTSEDSAVYYCATDGGTWYFDVWGTGTTVTVSS VL: QIVLTQSPALMSASPGEKVTMTCSASSSVTYMYWYQQKPRSSPKPWIYLTSNLASGVPARFSGSGSGTSYSLTISSMEAEDAATYYCQQWSSNPPTFGSGTKLEIKR
 | 2.8 |  |  |  |  |  | 1.77 | 0.7 | 2.9 | HFB3-14hz1c-hG1 (humanized monoclonal antibody) (antibody, V domains shown) VH: QVQLVQSGAEVKKPGSSVKVSCKASGYTFTDYYMNWVRQAPGQGLEWMGDINPNDGGTTYAQKFQGRVTITADESTSTAYMELSSLRSEDTAVYFCAREGNYYAYDVRVWYFDVWGQGTTVTVSS VL: DIQMTQSPSSLSASVGDRVTITCGASQDIITYLNWYQQKPGKAVKLLIYSTSSLNSGVPSRFSGSGSGTDFTLTISSLQPEDFATYYCQQYSELPYTFGGGTKVELKR
